{"source": "paper PMC4359367", "about": "“DNA binding polarity, dimerization, and ATPase ring remodeling in the CMG helicase of the eukaryotic replisome” (eLife, 2014)", "molecules": {"B1": {"name": "Psf1 (natural protein, Drosophila melanogaster, UniProt Q9W0I7 1-202, looked up)", "chain": "MSRQTKMFGEKAFDLLKELERSSQTIPAFDDDGVRQVLEEIKAIFEENVAQASSYNASGDRSLWPLLNFRHAALQRNKRCLLAYLYERCRRIKALRWEFGPIIPGDIKQALCEPEVTFFNNYSKSLAAYMCSAGYNQGLPIDLTNNLRPPKSLYIEVRCMEDYGKFELDDGEVIHLKKNSQHYLPRAQVESLVRQGILHHIA", "notes": "Psf1, Drosophila melanogaster, subunit of GINS; the printed B-domain region 185-202 ends at the C-terminus; source: Hi5 cells, co-infection with baculoviruses; purified as part of the CMG (anti-FLAG agarose, Mono S, Mono Q) and in whole cell lysate"}, "B2": {"name": "Cdc45 (natural protein, Drosophila melanogaster, UniProt O96989 1-575, looked up)", "chain": "MFVQDLRNDFYRQLVGKRILIVVNYDIDAICASRILQALFKYDHMLYTVVPIMGVTGLKRAYGEHQGDVKYVVLVNCGGCVDIVELLQPSDDVTFFICDSHRPLDVCNIYSDRQVCILGDASLEENIPAFETIFYDSEGEDEDEDESSDTEQQHDDSGAGESDQEDQAPRSRKLSRLERHEQRILKQRARRQWESERDRIMFEYTQFSYYGRSAALMVFELAWKLSKDNMDLLWWAIVGITEQLLLGKIESGAYTLELEQIQSHVSRLTNKTNDQNTMSASKITFENDLHLVLYRHWPVTESMRYSRYSSCQLKLWTLRGEKRLHELLLEMGLPLVHARQTYGAMDLVLRKEFFSMVERLAEKYDIADIVYGTFTLSYGYRSRYAAADYVYALLAIMESVKKHKTPEDCFLEASDALSRQHKQLLSAGIDQAKLLHAAVFRQVQSSLEARQVHSAGSFFYYVLQEEHAFFSYPYALGLLARFLLRGHVATSRARQASDLPLIASCPLNASEGMCLLVGIVPVREDSPRNFFGKAFEQAAQKSGVALLQDFFEPAVVQLRQSDLTRFLDSLTVLLA", "notes": "Cdc45, Drosophila melanogaster; also called DmCdc45; source: Hi5 cells, co-infection with baculoviruses; purified as part of the CMG (anti-FLAG agarose, Mono S, Mono Q) and in whole cell lysate"}}, "key": {"[1]": {"biological_target": "Cdc45/Mcm2-7/GINS (CMG) helicase (Drosophila melanogaster) (UniProt P49735)", "experiment": "negative-stain EM, reference-free 2D class averages; purified CMG with 3'-tailed DNA and ATPγS; dimeric particles compared with 2D projections of double-hexamer models in six registers"}, "Cdc45": {"biological_target": "B2", "experiment": "negative-stain EM single-particle reconstruction; purified CMG mixed with a 20 bp duplex DNA bearing a 3' dT40 tail and 0.1 mM ATPγS, Superose 6 peak fraction, uranyl formate stain; 18 Å map; crystal structures and homology models docked", "settings": "both partners purified"}, "Mcm2": {"biological_target": "T1, Mcm2 (Drosophila melanogaster, UniProt P49735 1-887)", "T1 construct": "Mcm2, Drosophila melanogaster, subunit of Mcm2-7; source: Hi5 cells, co-infection with baculoviruses; purified as part of the CMG (anti-FLAG agarose, Mono S, Mono Q) and in whole cell lysate", "T1 sequence (looked up)": "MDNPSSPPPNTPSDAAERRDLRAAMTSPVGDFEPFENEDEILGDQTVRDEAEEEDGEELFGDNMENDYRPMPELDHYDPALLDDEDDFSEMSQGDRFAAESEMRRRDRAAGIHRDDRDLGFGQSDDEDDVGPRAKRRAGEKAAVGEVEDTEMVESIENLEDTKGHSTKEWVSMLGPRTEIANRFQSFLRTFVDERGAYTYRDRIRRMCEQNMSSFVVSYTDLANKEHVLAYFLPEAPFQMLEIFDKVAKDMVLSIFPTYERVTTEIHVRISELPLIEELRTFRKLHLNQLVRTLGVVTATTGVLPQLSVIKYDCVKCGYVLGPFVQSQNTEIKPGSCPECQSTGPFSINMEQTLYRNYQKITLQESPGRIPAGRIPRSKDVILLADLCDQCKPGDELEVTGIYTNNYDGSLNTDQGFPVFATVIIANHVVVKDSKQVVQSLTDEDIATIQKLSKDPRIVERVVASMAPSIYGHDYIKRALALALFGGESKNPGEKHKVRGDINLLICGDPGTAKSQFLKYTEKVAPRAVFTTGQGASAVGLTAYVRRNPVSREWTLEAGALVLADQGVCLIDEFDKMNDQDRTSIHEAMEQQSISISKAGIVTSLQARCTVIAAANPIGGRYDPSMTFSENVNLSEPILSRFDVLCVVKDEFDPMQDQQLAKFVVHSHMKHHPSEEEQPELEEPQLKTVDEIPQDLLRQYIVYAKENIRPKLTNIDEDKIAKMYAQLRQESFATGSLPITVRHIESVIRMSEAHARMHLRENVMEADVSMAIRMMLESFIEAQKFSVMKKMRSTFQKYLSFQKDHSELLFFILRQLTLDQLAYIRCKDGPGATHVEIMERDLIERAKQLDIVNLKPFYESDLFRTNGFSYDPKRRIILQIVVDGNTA", "experiment": "negative-stain EM single-particle reconstruction; purified CMG mixed with a 20 bp duplex DNA bearing a 3' dT40 tail and 0.1 mM ATPγS, Superose 6 peak fraction, uranyl formate stain; 18 Å map; crystal structures and homology models docked", "settings": "both partners purified"}, "Mcm5": {"biological_target": "T2, Mcm5 (Drosophila melanogaster, UniProt Q9VGW6 1-733)", "T2 construct": "Mcm5, Drosophila melanogaster, subunit of Mcm2-7; source: Hi5 cells, co-infection with baculoviruses; purified as part of the CMG (anti-FLAG agarose, Mono S, Mono Q) and in whole cell lysate", "T2 sequence (looked up)": "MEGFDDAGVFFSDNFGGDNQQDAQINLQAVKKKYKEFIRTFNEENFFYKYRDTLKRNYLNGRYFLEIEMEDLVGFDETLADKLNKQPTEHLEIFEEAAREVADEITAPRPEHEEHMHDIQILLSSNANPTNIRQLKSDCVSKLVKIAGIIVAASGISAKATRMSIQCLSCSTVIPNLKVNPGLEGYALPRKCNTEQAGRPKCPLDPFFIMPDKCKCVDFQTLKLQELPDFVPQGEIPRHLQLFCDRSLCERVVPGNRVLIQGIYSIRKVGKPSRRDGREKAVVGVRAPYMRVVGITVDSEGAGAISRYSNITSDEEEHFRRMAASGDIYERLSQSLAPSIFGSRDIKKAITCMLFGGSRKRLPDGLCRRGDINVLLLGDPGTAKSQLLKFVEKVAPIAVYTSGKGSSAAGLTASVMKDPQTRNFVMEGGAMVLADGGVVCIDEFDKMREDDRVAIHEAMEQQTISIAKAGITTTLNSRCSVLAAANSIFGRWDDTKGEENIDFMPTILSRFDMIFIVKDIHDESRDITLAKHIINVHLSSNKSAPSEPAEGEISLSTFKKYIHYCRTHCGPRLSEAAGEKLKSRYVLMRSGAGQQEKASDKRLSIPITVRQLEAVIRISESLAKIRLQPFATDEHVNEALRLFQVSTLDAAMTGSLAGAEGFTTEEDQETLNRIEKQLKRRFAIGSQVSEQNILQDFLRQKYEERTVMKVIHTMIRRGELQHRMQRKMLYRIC", "experiment": "negative-stain EM single-particle reconstruction; purified CMG mixed with a 20 bp duplex DNA bearing a 3' dT40 tail and 0.1 mM ATPγS, Superose 6 peak fraction, uranyl formate stain; 18 Å map; crystal structures and homology models docked", "settings": "both partners purified"}}}
{"molecule": "Cdc45/Mcm2-7/GINS (CMG) helicase (from UniProt P49735 1-887; Q9XYU1 1-819; Q26454 1-866; Q9VGW6 1-733; Q9V461 1-817; Q9XYU0 1-720; Q9W0I7 1-202; Q9VQY9 1-203; Q9VBI1 1-228; O96989 1-575) (complex)", "values": [{"measurement": "percent of CMG particles in dimers", "setting": "[1]", "value": 5, "unit": "%"}, {"measurement": "stoichiometry N", "setting": "[1]", "value": 2}]}
{"molecule": "B1", "values": [{"measurement": "binding result", "setting": "Cdc45", "value": "binds"}]}
{"molecule": "B2", "values": [{"measurement": "binding result", "setting": "Mcm2", "value": "binds"}, {"measurement": "binding result", "setting": "Mcm5", "value": "binds"}]}
